# Test results reported in patent publication US9611303B2, “Modified biotin-binding protein” (Japan Tobacco Inc., priority 2009, dated 2017).
# Values joined by “and” are separate entries in the source; they are usually repeats but may differ in a detail not shown here. Identical values can stand only once. “Also recorded” adds a separate entry of the source.
# Key:
# [1] = Purification of LATM2 with biotin-agarose; assay type: binding; details: for Recover rate (%) / Note (Biotin-agarose): binding at pH 7, recovery with 10 mM biotin; for Note (Biotin-agarose): FT = flow-through
# Protocol: Purification with biotin-agarose (manufactured by Sigma-Aldrich Corp.) was performed by the following procedure. After induced expression of 25 mL of a culture solution of E. coli for each LATM2, the E. coli cells were suspended in 1.5 mL of a 100 mM potassium phosphate buffer (pH 7.0), and then sonicated. To the supernatant of the disrupted cells. 400 μL of biotin-agarose was added, which was followed by upside-down mixing for 1 hr. […]
# In TM2 S36A-T78A-D116A, the E. coli cells were suspended in 1.5 mL of 50 mM CAPS (pH 12) containing 50 mM NaCl, and then sonicated. To the disrupted cells, 400 μL of biotin-agarose was added, which was followed by upside-down mixing for 1 hr. The column was sufficiently washed with 50 mM CAPS (pH 12) containing 500 mM NaCl, and elution was then performed with 1 mL of PBS (pH 7.4) containing 10 mM biotin.
# In TM2 S36A-D116A, the E. coli cells were suspended in 1.5 mL of a 100 mM potassium phosphate buffer (pH 4.0), and then sonicated. To the pupernatant of the disrupted cells, 400 μL of biotin-agarose was added. Washing was performed with a 100 mM potassium phosphate buffer (pH 4) containing 500 mM NaCl, and elution was performed with 1 mL of PBS (pH 7) containing 10 mM biotin. Biotin binding to LATM2 that has been eluted with an excess amount of biotin was removed by dialysis with a 20 mM potassium phosphate buffer overnight.
# (§1) The recovery rate in Table 2 was calculated by dividing the amount of LATM2 protein after purification by the amount of LATM2 protein before purification and was expressed by percent by multiplying the quotient by 100. The degree of purification was the ratio of the amount of LATM2 protein to the total amount of proteins in the purified fraction and was expressed by percent by multiplying the ratio by 100. The recovery rates and the degrees of purification in biotin-agarose were the results after binding at pH 7 and elution with an excess amount of biotin.
# [2] = Purification of LATM2 with 2-iminobiotin-agarose; assay type: binding; details: for Recovery rate (%): Iminobiotin-agarose, binding at pH 12, elution with 50 mM NH4OAC (pH 4); for recovery rates compared with WT: purification with 2-iminobiotin-agarose; for Note (Iminobiotin-agarose): FT = column flow-through fraction
# Protocol: LATM2 was purified through a column charged with 2-iminobiotin-agarose (manufactured by Sigma-Aldrich Corp.) in accordance with the method by Hofmann, et al., (1980). IPTG was added to 25 mL of a culture solution of E. coli transformed with each LATM2 in a final concentration of 1 mM to induce expression. The E. coli cells were collected by centrifugation, suspended in 1.5 mL of 50 mM CAPS (pH 12) containing 50 mM NaCl, and then sonicated. To the supernatant of the disrupted cells, 500 μL of 2-iminobiotin-agarose was added, which was then packed in a column. The column was sufficiently washed with 50 mM CAPS (pH 12) containing 500 mM NaCl, and elution was then performed with 50 mM NH4OAC (pH 4).
# as §1
# [3] = Subunit association by FPLC on Sephacryl S-100HR; assay type: physicochemical; details: for Structure (identified by FPLC): Sephacryl S-100HR, 50 mM potassium phosphate, 500 mM NaCl; for Sephacryl (mL), elution peak position: tetramer 44 to 47 mL, dimer 51 to 54 mL, monomer 63 to 66 mL; for share present as monomer: of the total
# Protocol: In order to analyze the subunit association conditions of LATM2, the molecular weight of each LATM2s was measured by FPLC. Sephacryl S-100HR (manufactured by GE Healthcare) was used as a column, a Gel Filtration Calibration Kit LMW (manufactured by GE Healthcare) was used as molecular weight markers, and 50 mM potassium phosphate containing 500 mM NaCl was used as a buffer.
# The positions of the peaks of eluted tetramer were defined to be 44 to 47 mL after injection of WT-TM2 as a control. The peak of an eluted monomer appeared at around 63 to 66 mL and the peak of an eluted dimer appeared at around 51 to 54 mL, from result of loading the molecular weight markers.
Molecule,binding to 2-iminobiotin-agarose [2],Recover rate (%) ([1]; Biotin-agarose),Recovery rate (%) [2] [%],recovery rates compared with WT [2],Structure (identified by FPLC) [3],"Sephacryl (mL), elution peak position [3]",Note (Iminobiotin-agarose) [2],share present as monomer ([3]; FPLC),other results
TM2 W108K: TM2 in which the 108th tryptophan was replaced with lysine (protein) MSDVQSSLTGTWYNELNSKMELTANKDGTLTGKYLSKVGDVYVPYPLSGRYNLQPPAGQGVALGWAVSWENSKIHSATTWSGQFFSESSPVILTQWLLSSSTARGDVKESTLVGNDSFTKTAPTEQQIAHAQLHCRAPRLK,,95,30,inferior to WT,Tetramer,45.14 mL,,,share present as tetramer ([3]; FPLC): 100%
TM2 W69K: TM2 in which the 69th tryptophan was replaced with lysine (protein) MSDVQSSLTGTWYNELNSKMELTANKDGTLTGKYLSKVGDVYVPYPLSGRYNLQPPAGQGVALGWAVSKENSKIHSATTWSGQFFSESSPVILTQWLLSSSTARGDVWESTLVGNDSFTKTAPTEQQIAHAQLHCRAPRLK,,50,5,inferior to WT,Tetramer,45.09 mL,To FT,,"recover rate by elution with acetic acid ([1]; Biotin-agarose, elution with acetic acid): recover rate: 95%"
TM2 W108E: TM2 in which the 108th tryptophan was replaced with glutamic acid (protein) MSDVQSSLTGTWYNELNSKMELTANKDGTLTGKYLSKVGDVYVPYPLSGRYNLQPPAGQGVALGWAVSWENSKIHSATTWSGQFFSESSPVILTQWLLSSSTARGDVEESTLVGNDSFTKTAPTEQQIAHAQLHCRAPRLK,,95,5,inferior to WT,"dimer; also recorded: tetramer,","44.69 mL and 52.30, mL",To FT,,share present as dimer ([3]; FPLC): 67%; share present as tetramer ([3]; FPLC): 33%
TM2 L97T: TM2 in which the 97th leucine was replaced with threonine (protein) MSDVQSSLTGTWYNELNSKMELTANKDGTLTGKYLSKVGDVYVPYPLSGRYNLQPPAGQGVALGWAVSWENSKIHSATTWSGQFFSESSPVILTQWTLSSSTARGDVWESTLVGNDSFTKTAPTEQQIAHAQLHCRAPRLK,,0,0,,,,To FT,,binding to biotin-agarose [1]: bound to biotin-agarose; elution from biotin-agarose with an excess amount of biotin [1]: not eluted; Note (Biotin-agarose) [1]: not eluted
"TM2 A66R-L97T-V113R: TM2 with A66R, L97T and V113R replacements (protein) MSDVQSSLTGTWYNELNSKMELTANKDGTLTGKYLSKVGDVYVPYPLSGRYNLQPPAGQGVALGWRVSWENSKIHSATTWSGQFFSESSPVILTQWTLSSSTARGDVWESTLRGNDSFTKTAPTEQQIAHAQLHCRAPRLK",did not bind,30,0,,,,To FT,64.8%,"Structure (identified by FPLC) ([3]; dimer peak): dimer,; Structure (identified by FPLC) ([3]; monomer peak): monomer; Sephacryl (mL), elution peak position ([3]; dimer peak): 54.38, mL; Sephacryl (mL), elution peak position ([3]; monomer peak): 67.21 mL"
TM2 N14A: TM2 in which the 14th asparagine was replaced with alanine (protein) MSDVQSSLTGTWYAELNSKMELTANKDGTLTGKYLSKVGDVYVPYPLSGRYNLQPPAGQGVALGWAVSWENSKIHSATTWSGQFFSESSPVILTQWLLSSSTARGDVWESTLVGNDSFTKTAPTEQQIAHAQLHCRAPRLK,,50,10,inferior to WT,Tetramer,46.24 mL,,,

# The next lines start with results.
binding to 2-iminobiotin-agarose [2],Molecule,Recover rate (%) ([1]; Biotin-agarose),Recovery rate (%) [2] [%],recovery rates compared with WT [2],Structure (identified by FPLC) [3],"Sephacryl (mL), elution peak position [3]",Note (Iminobiotin-agarose) [2],share present as monomer ([3]; FPLC),other results
did not bind,TM2 V113R: TM2 in which the 113th valine was replaced with arginine (protein) MSDVQSSLTGTWYNELNSKMELTANKDGTLTGKYLSKVGDVYVPYPLSGRYNLQPPAGQGVALGWAVSWENSKIHSATTWSGQFFSESSPVILTQWLLSSSTARGDVWESTLRGNDSFTKTAPTEQQIAHAQLHCRAPRLK,30,0,,Tetramer,46.49 mL,To FT,,
did not bind,TM2 A66R-V113R: TM2 with 66th alanine and 113th valine replaced with arginine (protein) MSDVQSSLTGTWYNELNSKMELTANKDGTLTGKYLSKVGDVYVPYPLSGRYNLQPPAGQGVALGWRVSWENSKIHSATTWSGQFFSESSPVILTQWLLSSSTARGDVWESTLRGNDSFTKTAPTEQQIAHAQLHCRAPRLK,0,0,,,,To FT,,binding to biotin-agarose [1]: did not bind; Note (Biotin-agarose) [1]: To FT
did not bind,"TM2 A66R-L97T: TM2 double mutant A66R and L97T; not in the list of 30 forms, vector named in b302 (protein) MSDVQSSLTGTWYNELNSKMELTANKDGTLTGKYLSKVGDVYVPYPLSGRYNLQPPAGQGVALGWRVSWENSKIHSATTWSGQFFSESSPVILTQWTLSSSTARGDVWESTLVGNDSFTKTAPTEQQIAHAQLHCRAPRLK",80,0,,,,To FT,90%,"Structure (identified by FPLC) ([3]; dimer peak): dimer,; Sephacryl (mL), elution peak position ([3]; dimer peak): 54.49, mL"
did not bind,TM2 A66R: TM2 in which the 66th alanine was replaced with arginine (protein) MSDVQSSLTGTWYNELNSKMELTANKDGTLTGKYLSKVGDVYVPYPLSGRYNLQPPAGQGVALGWRVSWENSKIHSATTWSGQFFSESSPVILTQWLLSSSTARGDVWESTLVGNDSFTKTAPTEQQIAHAQLHCRAPRLK,50,0,,,,To FT,about 30%,"Structure (identified by FPLC) ([3]; monomer peak): monomer; Structure (identified by FPLC) ([3]; tetramer peak): tetramer,; share present as monomer ([3]; FPLC, listed as A66R): 30%; Sephacryl (mL), elution peak position ([3]; monomer peak): 66.15 mL; Sephacryl (mL), elution peak position ([3]; tetramer peak): 45.50, mL"
